Where two headings read alike, the source gives them in different places.
Key:
LIN28A [1] = target: T1, LIN28A (UniProt Q9H9Z2 1-209); assay: EMSA
T1 sequence: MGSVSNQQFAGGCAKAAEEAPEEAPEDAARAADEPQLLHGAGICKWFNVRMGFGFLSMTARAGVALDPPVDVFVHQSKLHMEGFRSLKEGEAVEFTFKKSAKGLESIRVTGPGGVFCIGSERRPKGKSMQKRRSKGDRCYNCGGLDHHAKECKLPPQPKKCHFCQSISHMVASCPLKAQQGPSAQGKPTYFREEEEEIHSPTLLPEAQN

LIN28A [2] = target: T1, LIN28A; assay: EMSA; remark: listed apart in the source

B1: HOXB9 original (structured_RNA)
RNA: GGGACAAGUGGUCUGGGACAGGGAGGAGCAAC
- binding result (LIN28A [1]): binds

B2: HOXB9 m6A (structured_RNA)
RNA: GGGACAAGUGGUCUGGGACAGGGAGGAGCAAC
modifications: one m6A; position marked only by red colour (not recoverable from text)
- binding result (LIN28A [2]): binds
